Among the data in the supplement of paper PMC10567573 are protein stability index values, retold here.

B1: ELF3 (parent)
chain: RLVYKFGKNSSGWKEEEVLQSRN
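Note: lentivirally expressed fusions sorted by FACS into six bins by GFP to DsRed ratio, PSI derived from sequencing read proportions per bin multiplied by bin number.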

The data set covers variants of B1. The experiment in a line: protein stability index of a GFP-peptide fusion (GPS, HEK-293T) (PSI 1-6); higher = more stable. The settings on record: c terminus: native.
As for RLVYKFGKNSSGWKEEEVLQSRD [N23D], the protein stability index came to 2.7.

With RLVYKFGKNSSGWKEEEVLQSRS [N23S], the protein stability index stood at 2.51.

As to RLVYKFGKNSSGWKEEEVLQSRG [N23G], the protein stability index was 2.

For the variant RLVYKFGKNSSGWKEEEVLQSRY [N23Y], the protein stability index amounted to 2.31.

On to RLVYKFGKNSSGWKEEEVLQSRW [N23W], for which the protein stability index turned out to be 2.13.

Consider RLVYKFGKNSSGWKEEEVLQSRV [N23V], for which the protein stability index amounted to 2.62.

In the case of RLVYKFGKNSSGWKEEEVLQSRP [N23P], the protein stability index was 3.22.

For RLVYKFGKNSSGWKEEEVLQSRA [N23A], the protein stability index worked out at 2.28.

Regarding RLVYKFGKNSSGWKEEEVLQSRI [N23I], the protein stability index turned out to be 1.8.

RLVYKFGKNSSGWKEEEVLQSRE [N23E]: the protein stability index turned out to be 3.68.

As for RLVYKFGKNSSGWKEEEVLQSRK [N23K], the protein stability index was 3.52.

RLVYKFGKNSSGWKEEEVMQSRN [L19M]: the protein stability index stood at 2.43.

As to RLVYKFGKNSSGWKEEEVDQSRN [L19D], the protein stability index turned out to be 4.52.

As for RLVYKFGKNSSGWKEEEVQQSRN [L19Q], the protein stability index came out at 3.85.

Turning to RLVYKFGKNSSGWKEEEVFQSRN [L19F], the protein stability index turned out to be 1.49.

Regarding RLVYKFGKNSSGWKEEEVAQSRN [L19A], the protein stability index was determined as 3.3.

Regarding RLVYKFGKNSSGWKEEEVIQSRN [L19I], the protein stability index was 2.67.

For the variant RLVYKFGKNSSGWKEEEVCQSRN [L19C], the protein stability index came to 2.33.

RLVYKFGKNSSGWKEEEVYQSRN [L19Y]: the protein stability index was determined as 1.52.

As to RLVYKFGKNSSGWKEEEVNQSRN [L19N], the protein stability index is 3.65.

Turning to RLVYKFGKNSSGWKEEEVKQSRN [L19K], the protein stability index was determined as 3.02.

As to RLVYKFGKNSSGWKEEEVRQSRN [L19R], the protein stability index worked out at 2.51.

RLVYKFGKNSSGWKEEEVEQSRN [L19E]: the protein stability index was 4.05.

For the variant RLVYKFGKNSSGWKEEEVVQSRN [L19V], the protein stability index came to 2.55.

Take RLVYKFGKNSSGWKEEEVPQSRN [L19P]: the protein stability index turned out to be 3.12.

For the variant RLVYKFGKNSSGWKEEEVHQSRN [L19H], the protein stability index worked out at 2.98.

As for RLVYKFGKNSSGWKEEEVGQSRN [L19G], the protein stability index worked out at 3.19.

With RLVYKFGKNSSGWKEEEVTQSRN [L19T], the protein stability index stood at 3.84.

RLVYKFGKNSSGWKEEYVLQSRN [E17Y]: the protein stability index was 2.98.

Consider RLVYKFGKNSSGWKEEEVLQSHN [R22H], for which the protein stability index came to 3.53.

As to RLVYKFGKNSSGWKEEEVLQSLN [R22L], the protein stability index worked out at 2.56.

In the case of RLVYKFGKNSSGWKEEEVLQSCN [R22C], the protein stability index stood at 2.35.

For RLVYKFGKNSSGWKEEEVLQSDN [R22D], the protein stability index is 4.7.

For RLVYKFGKNSSGWKEEEVLQSPN [R22P], the protein stability index is 3.62.

RLVYKFGKNSSGWKEEEVLQSIN [R22I]: the protein stability index was found to be 3.42.

Regarding RLVYKFGKNSSGWKEEEVLQSAN [R22A], the protein stability index came out at 2.85.

In the case of RLVYKFGKNSSGWKEEEVLQSKN [R22K], the protein stability index came to 3.75.

On to RLVYKFGKNSSGWKEEEVLQSTN [R22T], for which the protein stability index worked out at 3.51.

In the case of RLVYKFGKNSSGWKEEEVLQSFN [R22F], the protein stability index was 3.01.

As for RLVYKFGKNSSGWKEEEVLQSQN [R22Q], the protein stability index came to 3.02.

As to RLVYKFGKNSSGWKEEEVLQSMN [R22M], the protein stability index came out at 2.72.

Turning to RLVYKFGKNSSGWKEEEVLQSNN [R22N], the protein stability index is 3.96.

As for RLVYKFGKNSSGWKEEEVLQSSN [R22S], the protein stability index is 2.92.

With RLVYKFGKNSSGWKEEEVLQSYN [R22Y], the protein stability index turned out to be 2.06.

Take RLVYKFGKNSSGWKEEECLQSRN [V18C]: the protein stability index is 2.44.

Turning to RLVYKFGKNSSGWKEEEMLQSRN [V18M], the protein stability index was 1.84.

Regarding RLVYKFGKNSSGWKEEEHLQSRN [V18H], the protein stability index was 3.01.

For RLVYKFGKNSSGWKEEELLQSRN [V18L], the protein stability index was 2.08.

For RLVYKFGKNSSGWKEEENLQSRN [V18N], the protein stability index came out at 2.59.

As for RLVYKFGKNSSGWKEEEILQSRN [V18I], the protein stability index stood at 2.32.

With RLVYKFGKNSSGWKEEERLQSRN [V18R], the protein stability index stood at 2.29.

For RLVYKFGKNSSGWKEEEFLQSRN [V18F], the protein stability index amounted to 1.73.

For the variant RLVYKFGKNSSGWKEEEELQSRN [V18E], the protein stability index is 3.17.

For RLVYKFGKNSSGWKEEEDLQSRN [V18D], the protein stability index was found to be 3.45.

On to RLVYKFGKNSSGWKEEEPLQSRN [V18P], for which the protein stability index was 2.81.

As to RLVYKFGKNSSGWKEEEWLQSRN [V18W], the protein stability index worked out at 1.62.

Regarding RLVYKFGKNSSGWKEEESLQSRN [V18S], the protein stability index is 2.68.

RLVYKFGKNSSGWKEEEYLQSRN [V18Y]: the protein stability index is 1.25.

For RLVYKFGKNSSGWKEEEGLQSRN [V18G], the protein stability index turned out to be 2.9.

As for RLVYKFGKNSSGWKEEEQLQSRN [V18Q], the protein stability index worked out at 2.35.

As for RLVYKFGKNSSGWKEEEKLQSRN [V18K], the protein stability index amounted to 2.94.

As to RLVYKFGKNSSGWKEEETLQSRN [V18T], the protein stability index was 2.16.

RLVYKFGKNSSGWKEEEALQSRN [V18A]: the protein stability index worked out at 2.49.

With RLVYKFGKNSSGWKEEEVLDSRN [Q20D], the protein stability index came to 3.28.

In the case of RLVYKFGKNSSGWKEEEVLYSRN [Q20Y], the protein stability index came to 1.79.

Take RLVYKFGKNSSGWKEEEVLMSRN [Q20M]: the protein stability index amounted to 2.06.

Regarding RLVYKFGKNSSGWKEEEVLCSRN [Q20C], the protein stability index worked out at 2.22.

With RLVYKFGKNSSGWKEEEVLGSRN [Q20G], the protein stability index is 3.4.

With RLVYKFGKNSSGWKEEEVLVSRN [Q20V], the protein stability index came out at 1.71.

With RLVYKFGKNSSGWKEEEVLKSRN [Q20K], the protein stability index is 1.25.

Turning to RLVYKFGKNSSGWKEEEVLLSRN [Q20L], the protein stability index was found to be 2.19.

Turning to RLVYKFGKNSSGWKEEEVLPSRN [Q20P], the protein stability index was 2.38.

In the case of RLVYKFGKNSSGWKEEEVLTSRN [Q20T], the protein stability index came out at 1.58.

Turning to RLVYKFGKNSSGWKEEEVLWSRN [Q20W], the protein stability index was determined as 1.67.

Consider RLVYKFGKNSSGWKEEEVLISRN [Q20I], for which the protein stability index stood at 1.71.

Take RLVYKFGKNSSGWKEEEVLESRN [Q20E]: the protein stability index turned out to be 3.52.

Turning to RLVYKFGKNSSGWKEEEVLSSRN [Q20S], the protein stability index was 2.4.

With RLVYKFGKNSSGWKEEEVLASRN [Q20A], the protein stability index stood at 1.89.

With RLVYKFGKNSSGWKEEEVLHSRN [Q20H], the protein stability index was 1.76.

For RLVYKFGKNSSGWKEEEVLNSRN [Q20N], the protein stability index was 3.32.

In the case of RLVYKFGKNSSGWKEEEVLQTRN [S21T], the protein stability index came to 2.1.

As for RLVYKFGKNSSGWKEEEVLQKRN [S21K], the protein stability index turned out to be 2.95.

Take RLVYKFGKNSSGWKEEEVLQVRN [S21V]: the protein stability index was determined as 1.82.

Turning to RLVYKFGKNSSGWKEEEVLQLRN [S21L], the protein stability index stood at 3.31.

Regarding RLVYKFGKNSSGWKEEEVLQYRN [S21Y], the protein stability index came out at 2.72.

Turning to RLVYKFGKNSSGWKEEEVLQNRN [S21N], the protein stability index stood at 2.49.

For RLVYKFGKNSSGWKEEEVLQMRN [S21M], the protein stability index was 2.31.

On to RLVYKFGKNSSGWKEEEVLQERN [S21E], for which the protein stability index is 3.19.

On to RLVYKFGKNSSGWKEEEVLQDRN [S21D], for which the protein stability index came out at 3.56.

Turning to RLVYKFGKNSSGWKEEEVLQFRN [S21F], the protein stability index came out at 1.94.

Take RLVYKFGKNSSGWKEEEVLQIRN [S21I]: the protein stability index is 2.41.

As to RLVYKFGKNSSGWKEEEVLQARN [S21A], the protein stability index came out at 2.12.

Regarding RLVYKFGKNSSGWKEEEVLQPRN [S21P], the protein stability index is 3.39.

For RLVYKFGKNSSGWKEEEVLQQRN [S21Q], the protein stability index worked out at 3.82.

Consider RLVYKFGKNSSGWKEEEVLQCRN [S21C], for which the protein stability index came to 2.39.

For the variant RLVYKFGKNSSGWKEEEVLQGRN [S21G], the protein stability index is 2.26.
